Results taken from article PMC12668130, “RNA-induced PRC2 inhibition depends on the sequence of bound RNA”.

Tests used:
[1] = biological target: PRC2 four-subunit holoenzyme (EZH2-EED-SUZ12-RBAP48) (UniProt Q15910-2;O75530;Q15022;Q09028 1-751;1-441;1-739;1-425); assay: EMSA; 100 mM KCl; EMSA: 50 mM Tris-HCl pH 7.5 (25 C), 100 mM KCl, 2.5 mM MgCl2, 0.1 mM ZnCl2, 2 mM 2-mercaptoethanol, 0.05 mg/ml BSA, 0.05 mg/ml yeast tRNA, 5% glycerol, 30 C 30; settings: protein: recombinant; tags: MBP tags, removed by Prescission protease; copies: 1;1;1;1; label: 5'-32P (EMSA, UV); 5'-biotin (EM); no G4
[2] = biological target: PRC2 five-subunit (EZH2-EED-SUZ12-RBAP48-AEBP2) (UniProt Q15910-2;O75530;Q15022;Q09028;Q6ZN18-3 1-751;1-441;1-739;1-425;1-301); assay: EMSA; 100 mM KCl; affinity near identical to six-subunit; EMSA: 50 mM Tris-HCl pH 7.5 (25 C), 100 mM KCl, 2.5 mM MgCl2, 0.1 mM ZnCl2, 2 mM 2-mercaptoethanol, 0.05 mg/ml BSA, 0.05 mg/ml yeast tRNA, 5% glycerol, 30 C 30; settings: protein: recombinant; tags: MBP tags, removed by Prescission protease; copies: 1;1;1;1;1; label: 5'-32P (EMSA, UV); 5'-biotin (EM); no G4

Chain of PRC2 four-subunit holoenzyme (EZH2-EED-SUZ12-RBAP48) (Q15910 other isoform, or with tags, fused parts or gaps, chain 1 of 4): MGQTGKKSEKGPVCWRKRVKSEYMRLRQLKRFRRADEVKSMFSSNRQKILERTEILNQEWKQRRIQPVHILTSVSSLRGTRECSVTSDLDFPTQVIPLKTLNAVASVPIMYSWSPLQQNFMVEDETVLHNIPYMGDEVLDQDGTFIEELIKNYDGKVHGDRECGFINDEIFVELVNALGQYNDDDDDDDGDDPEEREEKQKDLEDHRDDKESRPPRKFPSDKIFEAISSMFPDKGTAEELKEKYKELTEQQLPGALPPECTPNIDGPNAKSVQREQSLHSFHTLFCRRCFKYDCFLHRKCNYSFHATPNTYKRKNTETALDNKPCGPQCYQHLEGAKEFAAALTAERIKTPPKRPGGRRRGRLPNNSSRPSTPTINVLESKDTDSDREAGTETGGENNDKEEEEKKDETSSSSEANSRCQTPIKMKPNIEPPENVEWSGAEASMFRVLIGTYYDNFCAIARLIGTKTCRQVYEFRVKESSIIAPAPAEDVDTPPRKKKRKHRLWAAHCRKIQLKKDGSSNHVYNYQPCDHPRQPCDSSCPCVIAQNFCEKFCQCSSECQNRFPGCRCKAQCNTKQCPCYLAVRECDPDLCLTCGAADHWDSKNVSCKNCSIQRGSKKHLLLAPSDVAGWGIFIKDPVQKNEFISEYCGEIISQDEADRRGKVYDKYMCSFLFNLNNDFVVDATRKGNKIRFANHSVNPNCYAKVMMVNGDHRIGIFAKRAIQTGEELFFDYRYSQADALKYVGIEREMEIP
Chain of PRC2 four-subunit holoenzyme (EZH2-EED-SUZ12-RBAP48) (O75530 whole entry, chain 2 of 4): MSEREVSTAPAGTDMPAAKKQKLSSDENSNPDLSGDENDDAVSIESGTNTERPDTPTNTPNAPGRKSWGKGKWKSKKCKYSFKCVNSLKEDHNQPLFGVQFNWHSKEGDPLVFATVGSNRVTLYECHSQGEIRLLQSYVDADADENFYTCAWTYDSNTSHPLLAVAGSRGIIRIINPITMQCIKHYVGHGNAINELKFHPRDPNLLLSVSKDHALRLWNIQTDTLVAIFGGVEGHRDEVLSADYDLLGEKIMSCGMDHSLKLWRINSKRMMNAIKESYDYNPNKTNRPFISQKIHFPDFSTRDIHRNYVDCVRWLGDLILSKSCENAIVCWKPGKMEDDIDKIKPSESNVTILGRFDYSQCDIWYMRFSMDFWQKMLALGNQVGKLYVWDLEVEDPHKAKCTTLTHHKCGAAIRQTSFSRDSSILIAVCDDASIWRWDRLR
Chain of PRC2 four-subunit holoenzyme (EZH2-EED-SUZ12-RBAP48) (Q15022 whole entry, chain 3 of 4): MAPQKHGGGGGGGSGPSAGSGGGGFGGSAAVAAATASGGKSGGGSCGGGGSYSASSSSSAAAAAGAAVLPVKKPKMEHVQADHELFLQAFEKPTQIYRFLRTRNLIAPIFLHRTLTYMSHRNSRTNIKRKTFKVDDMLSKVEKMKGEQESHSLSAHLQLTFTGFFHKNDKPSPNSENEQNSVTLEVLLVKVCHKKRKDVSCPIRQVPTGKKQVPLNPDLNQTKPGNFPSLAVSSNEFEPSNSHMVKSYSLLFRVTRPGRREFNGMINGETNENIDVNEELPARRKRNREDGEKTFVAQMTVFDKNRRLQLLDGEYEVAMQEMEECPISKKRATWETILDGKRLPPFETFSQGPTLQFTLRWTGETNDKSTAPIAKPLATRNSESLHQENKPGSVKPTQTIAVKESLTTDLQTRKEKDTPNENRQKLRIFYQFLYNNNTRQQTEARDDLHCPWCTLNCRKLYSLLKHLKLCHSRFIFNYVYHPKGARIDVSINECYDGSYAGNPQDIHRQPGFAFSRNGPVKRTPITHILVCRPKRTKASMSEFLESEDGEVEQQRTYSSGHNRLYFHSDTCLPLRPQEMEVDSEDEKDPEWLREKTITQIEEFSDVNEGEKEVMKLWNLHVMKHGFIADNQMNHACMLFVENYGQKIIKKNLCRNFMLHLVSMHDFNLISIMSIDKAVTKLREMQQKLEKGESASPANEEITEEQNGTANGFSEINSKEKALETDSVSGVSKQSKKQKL
Chain of PRC2 four-subunit holoenzyme (EZH2-EED-SUZ12-RBAP48) (Q09028 whole entry, chain 4 of 4): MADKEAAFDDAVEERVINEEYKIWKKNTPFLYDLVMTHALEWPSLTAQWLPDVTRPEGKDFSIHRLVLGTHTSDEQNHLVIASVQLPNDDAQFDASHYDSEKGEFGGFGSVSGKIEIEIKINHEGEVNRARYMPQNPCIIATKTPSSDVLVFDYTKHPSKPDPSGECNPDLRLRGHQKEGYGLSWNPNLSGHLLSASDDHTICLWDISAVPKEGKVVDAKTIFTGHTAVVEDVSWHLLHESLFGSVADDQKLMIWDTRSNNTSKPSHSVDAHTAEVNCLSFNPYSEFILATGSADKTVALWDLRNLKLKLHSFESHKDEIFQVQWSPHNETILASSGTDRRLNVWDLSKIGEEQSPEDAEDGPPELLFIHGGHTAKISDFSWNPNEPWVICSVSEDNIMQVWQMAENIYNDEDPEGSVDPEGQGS

AAAAAAAAAAGAGAGAGAUGAGUGUGAGUGUGAGUGUGAGUGAGAGAGAG (ssRNA) [TERRAmut] showed a binding signal [1] of 12 Kd ratio TERRAmut/TERRA and a binding signal [2] of 4 Kd ratio TERRAmut/TERRA.
